Laboratory results from PMC6515374, “Virus-Like Particle Facilitated Deposition of Hydroxyapatite Bone Mineral on Nanocellulose after Exposure to Phosphate and Calcium Precursors” (International Journal of Molecular Sciences, 2019).

Target: the molecule itself
Assay: transmission electron microscopy; purified VLPs on carbon coated copper grids, stained with 2% uranyl acetate, 80 kV; also confirmed by atomic force microscopy (Figure S1)

B1: Tobacco mosaic virus coat protein subunit with the E50Q and D77N mutations (assembles into TMV virus-like particles) (natural protein, UniProt P69687 1-159, looked up)
chain: MSYSITTPSQFVFLSSAWADPIELINLCTNALGNQFQTQQARTVVQRQFSQVWKPSPQVTVRFPDSDFKVYRYNAVLNPLVTALLGAFDTRNRIIEVENQANPTTAETLDATRRVDDATVAIRSAINNLIVELIRGTGSYNRSSFESSSGLVWTSGPAT
notes: Tobacco mosaic virus coat protein, codon optimized for bacterial expression, in pET-21a(+) at NdeI/XhoI with a stop codon to prevent fusion to the His tag; No tag: a stop codon stands before the vector's His tag; Assembles without viral RNA into rods of 18 nm diameter and variable length; also called TMV VLPs; TMV CP; source: E. coli BL21(DES)pLysS, purified (chloroform, PEG 8000/NaCl …)
binding result: binds
